# Measured values from US12186374B2 (Sanofi-Aventis Deutschland GmbH, priority 2014, dated 2025).
# Assays:
# [1] = system: patients with Type 2 diabetes mellitus (T2DM); test: HbA1c change from baseline to Week 30 (Example 2, on top of metformin); type: in vivo, human; settings: for HbA1c change from baseline to Week 30, LS Mean (SE): MMRM
# Procedure: For the eligibility and efficacy assessments of the study, HbA1c is measured by a certified level I “National Glycohemoglobin Standardization Program” (NGSP) central laboratory.
# Randomization was stratified by values of HbA1c at visit 4 (<8%, […]) and second oral anti-diabetic (OAD) use at screening (Yes, No).
# Diagnosis and criteria for inclusion: Inclusion criteria: Patients with type 2 diabetes mellitus (T2DM) diagnosed for at least 1 year before the screening visit, treated for at least 3 months prior to Visit 1 with metformin alone or metformin and a second oral anti-diabetic treatment that could be a SU, a glinide, a SGLT-2 inhibitor, or a DPP-4 inhibitor, and who were not adequately controlled with this treatment.
# Efficacy analysis was based on modified intent-to-treat (mITT) population using efficacy assessments collected during the study, including those obtained after IMP discontinuation or introduction of rescue therapy. The mITT population consisted of all randomized patients who had both a baseline assessment and at least one post-baseline assessment of any primary or secondary efficacy variables.
# The primary efficacy endpoint was analyzed using a mixed-effect model with repeated measures (MMRM). The MMRM model included the treatment groups, randomization strata, visit, treatment-by-visit interaction, and country as fixed-effect factors, and the baseline HbA1c-by-visit interaction as covariate.
# [2] = system: patients with T2DM; test: Standardized meal test: 2-hour glucose excursion and 2-hour PPG (Example 3); type: in vivo, human
# Procedure: Patients will undergo a standardized meal challenge to assess fasting and postprandial glucose (central laboratory), as well as plasma glucose excursion.
# The standardized meal contains approximately 600 kcal and is composed of 50 to 55% carbohydrate, 15 to 20% protein and 25 to 30% fat.
# On the day of the standardized meal test, the patients will come to the investigational site in the morning, in fasting conditions for at least 8 hours and must not eat any food or drink, except water, before the scheduled standardized meal test. […] Patient in insulin glargine group will inject their insulin glargine at their usual injection time.
# The standardized meal for all patients should be consumed within a 15-minute period. Blood for plasma glucose is drawn 5 times: • 30 minutes prior to the start of the meal and before IMP administration if the IMP is injected before breakfast; • Just before the start of the standardized meal (0 minute), • 30 minutes after the start of the standardized meal, • 60 minutes after the start of the standardized meal, • 120 minutes after the start of the standardized meal.
# (§1) Similar MMRM method or analysis of covariance (ANCOVA) was applied on continuous secondary efficacy endpoints and the Cochran-Mantei-Haenszel method stratified by randomization strata was applied for categorical efficacy endpoints.
# [3] = system: patients with T2DM; test: Body weight change from baseline to Week 30 (Example 3); type: in vivo, human
# From the text: Body weight should be obtained with the patient wearing undergarments or very light clothing and no shoes, and with an empty bladder. The same scale should be used throughout the study, and calibrated on a regular basis as recommended by the manufacturer.
# as §1
# [4] = system: patients with T2DM; test: Fasting plasma glucose change from baseline to Week 30 (Example 3); type: in vivo, human
# Procedure: FPG is measured at a central laboratory. At V5 and V21, FPG will be part of the standardized meal test.
# as §1
# [5] = system: patients with T2DM; test: Patients requiring rescue therapy (Example 3); type: in vivo, human
# From the text: Routine fasting SMPG and central lab alerts on FPG (and HbA1c after Week 12) were set up to ensure that glycemic parameters remained under predefined threshold values. If values were above predefined thresholds, and no explanations were found, or appropriate actions failed, or a dose >60 U was necessary to decrease FPG and/or HbA1c below the threshold values, rescue therapy was to be introduced along with IMP and metformin (if taken). Newly initiated anti-diabetic medications, or an increase from baseline in background metformin dose were considered as a rescue therapy.
# [6] = system: patients with T2DM; test: Patient disposition / treatment discontinuation (Example 3); type: in vivo; settings: Randomized population; percentages of patients randomized
# From the text: The discrepancy between the strata assigned by IVRS/IWRS and the information reported on electronic Case Report Form (eCRF) will be listed for all randomized patients, • Patients who have completed the 30-week treatment period, • Patients who discontinued the IMP during the 30-week treatment period, and the reasons for treatment discontinuation.
# [7] = system: patients with Type 2 diabetes mellitus (T2DM); test: Pen-related event questionnaire (Example 2); settings: on-treatment period
# [8] = system: patients with Type 2 diabetes mellitus (T2DM); test: Pancreatic events adjudicated by PSAC (Example 2)
# [9] = system: patients with Type 2 diabetes mellitus (T2DM); test: Major cardiovascular events adjudicated by CAC (Example 2); settings: on-treatment period
# [10] = system: patients with T2DM; test: Major cardiovascular events adjudicated by CAC (Example 3)
# [11] = standardized meal test, ANCOVA, mITT population
# [12] = standardized meal test, mITT population
# [13] = on-treatment period, Safety population
substance,measurement,setting,value
Gly(A21)-Arg(B31)-Arg(B32)-human insulin [Insulin Glargine],"HbA1c change from baseline to Week 30, LS Mean (SE)",[1]; mITT population,−1.34 (0.039) %
same,"HbA1c change from baseline to Week 30, LS Mean (SE)","[1]; mITT population, listed as insulin glargine",−1.34%
same,HbA1c (%) Week 30 Mean (SD),"[1]; Week 30, mITT population",6.81 (0.76) %
same,HbA1c (%) Week 30 Median,"[1]; Week 30, mITT population",6.70%
same,HbA1c (%) Week 30 Mean (SD),"[1]; Week 30, mITT population, listed as insulin glargine",6.8%
same,HbA1c (%) Baseline Mean (SD),"[1]; baseline, mITT population",8.08 (0.69) %
same,HbA1c (%) Baseline Median,"[1]; baseline, mITT population",8.00%
same,"2-hour PPG, LS mean change",[2]; Example 3,-1.39 mmol/L
same,"2-hour glucose excursion, LS mean change from baseline to Week 30","[2]; Example 3, standardized liquid breakfast meal",-0.47 mmol/L
same,"2-hour plasma glucose excursion, change from baseline to Week 30 (LOCF), LS Mean (SE)",[2]; [11],−0.47 (0.274) mmol/L
same,"2-hour postprandial plasma glucose change from baseline to Week 30 (LOCF), LS Mean (SE)",[2]; [11],−1.39 (0.310) mmol/L
same,"2-hour plasma glucose excursion at Week 30 (LOCF), Mean (SD)",[2]; [12],6.71 (3.34) mmol/L
same,"2-hour plasma glucose excursion at Week 30 (LOCF), Median",[2]; [12],6.40 mmol/L
same,"2-hour plasma glucose excursion, change from baseline to Week 30 (LOCF), Mean (SD)",[2]; [12],−0.44 (3.34) mmol/L
same,"2-hour plasma glucose excursion, change from baseline to Week 30 (LOCF), Median",[2]; [12],-0.30 mmol/L
same,"2-hour postprandial plasma glucose at Week 30 (LOCF), Mean (SD)",[2]; [12],13.41 (3.83) mmol/L
same,"2-hour postprandial plasma glucose at Week 30 (LOCF), Median",[2]; [12],13.10 mmol/L
same,"2-hour postprandial plasma glucose change from baseline to Week 30 (LOCF), Mean (SD)",[2]; [12],−1.56 (4.20) mmol/L
same,"2-hour postprandial plasma glucose change from baseline to Week 30 (LOCF), Median",[2]; [12],-1.50 mmol/L
same,"Body weight, LS mean change from baseline to Week 30",[3]; Example 3,+0.70 kg
same,"Body weight change from baseline to Week 30, LS Mean (SB)","[3]; MMRM, mITT population",0.70 (0.178) kg
same,"Body weight at Week 30, Mean (SD)",[3]; mITT population,87.96 (15.08) kg
same,"Body weight at Week 30, Median",[3]; mITT population,85.90 kg
same,"FPG, LS mean change from baseline to Week 30",[4]; Example 3,-0.46 mmol/L
same,"Fasting plasma glucose change from baseline to Week 30, LS Mean","[4]; MMRM, mITT population",-0.46 mmol/L
same,"Fasting plasma glucose at Week 30, Mean",[4]; mITT population,6.69 mmol/L
same,"Fasting plasma glucose at Week 30, Median",[4]; mITT population,6.30 mmol/L
same,"Patients who received rescue therapy, %",[5],6.0%
same,"Patients who received rescue therapy, number",[5],22 patients
same,Reason for study treatment discontinuation: Adverse event,[6],3 (0.8%)
same,Status at last study contact: Dead,[6],2 (0.5%)
same,"Patients reporting pen-related events, %",[7]; Example 2,2.1%
same,"Patients reporting pen-related events, number",[7]; Example 2,10 patients
same,Patients with events reported in pen-related event questionnaire: Any pen-related events,[7]; Safety population,10 (2.1%) Number (%)
same,Pen-related events: Associated with a clinical event,[7]; Safety population,0 Number (%)
same,Pen-related events: Not associated with a clinical event,[7]; Safety population,10 (2.1%) Number (%)
same,Cases of pancreatic cancer,[8]; Example 2,One
same,Pancreatic events positively adjudicated by PSAC: Acute on chronic pancreatitis,[8]; [13],0 Number (%)
same,Pancreatic events positively adjudicated by PSAC: Acute pancreatitis,[8]; [13],0 Number (%)
same,Pancreatic events positively adjudicated by PSAC: Chronic pancreatitis,[8]; [13],0 Number (%)
same,Pancreatic events positively adjudicated by PSAC: Unknown pancreatitis,[8]; [13],0 Number (%)
same,Patients with pancreatic events positively adjudicated by PSAC: Any with “Yes” for pancreatitis by PSAC,[8]; [13],0 Number (%)
same,"TEAEs adjudicated as major cardiovascular events by CAC, % of patients",[9]; Example 2,1.5%
same,"TEAEs adjudicated as major cardiovascular events by CAC, number of patients",[9]; Example 2,7 patients
same,Major cardiovascular events by CAC: Cardiovascular death,[9]; Safety population,2 (0.4%) n(%)
same,Major cardiovascular events by CAC: Coronary revascularization procedure,[9]; Safety population,1 (0.2%) n(%)
same,Major cardiovascular events by CAC: Hospitalization for heart failure,[9]; Safety population,2 (0.4%) n(%)
same,Major cardiovascular events by CAC: Hospitalization for unstable angina,[9]; Safety population,1 (0.2%) n(%)
same,Major cardiovascular events by CAC: Non-fatal myocardial infarction,[9]; Safety population,0 n(%)
same,Major cardiovascular events by CAC: Non-fatal stroke,[9]; Safety population,1 (0.2%) n(%)
same,Patients with events adjudicated as major cardiovascular events by CAC: Any,[9]; Safety population,7 (1.5%) n(%)
same,"Events adjudicated as major cardiovascular events by CAC, % of patients",[10]; Example 3,1.1%
same,"Events adjudicated as major cardiovascular events by CAC, number of patients",[10]; Example 3,4 patients
same,% of patients with events adjudicated as major cardiovascular events by CAC: Any,[10]; [13],1.1%
same,% of patients with events adjudicated as major cardiovascular events by CAC: Cardiovascular death,[10]; [13],0.3%
same,% of patients with events adjudicated as major cardiovascular events by CAC: Coronary revascularization procedure,[10]; [13],0.8%
same,% of patients with events adjudicated as major cardiovascular events by CAC: Hospitalization for heart failure,[10]; [13],0.3%
same,Number of patients with events adjudicated as major cardiovascular events by CAC: Any,[10]; [13],4
same,Number of patients with events adjudicated as major cardiovascular events by CAC: Cardiovascular death,[10]; [13],1
same,Number of patients with events adjudicated as major cardiovascular events by CAC: Coronary revascularization procedure,[10]; [13],3
same,Number of patients with events adjudicated as major cardiovascular events by CAC: Hospitalization for heart failure,[10]; [13],1
same,Number of patients with events adjudicated as major cardiovascular events by CAC: Hospitalization for unstable angina,[10]; [13],0
same,Number of patients with events adjudicated as major cardiovascular events by CAC: Non-fatal myocardial infarction,[10]; [13],0
same,Number of patients with events adjudicated as major cardiovascular events by CAC: Non-fatal stroke,[10]; [13],0
